Columns and labels:
[1] = molecular target: T1, mutated human CRTH2 with amino acid substitution (Homo sapiens, UniProt Q9Y5Y4, L187A/L188A/L189A); experiment: Epitope analysis using CHO-S cells which express mutated human CRTH2 with amino acid substitution; format: binding; settings: mutant L187A, L188A, and L189A; antibody 10 μg/mL; relative to wild-type = 100%
T1 construct: inserting genes encoding various mutants with amino acid substitution obtained by deleting termination codons; expressed in transfected cells; host or cells: CHO-S cells (Lifetechnologies), transient (phmAG1-MNLinker vector)
T1 sequence (Q9Y5Y4 1-395 L187A/L188A/L189A): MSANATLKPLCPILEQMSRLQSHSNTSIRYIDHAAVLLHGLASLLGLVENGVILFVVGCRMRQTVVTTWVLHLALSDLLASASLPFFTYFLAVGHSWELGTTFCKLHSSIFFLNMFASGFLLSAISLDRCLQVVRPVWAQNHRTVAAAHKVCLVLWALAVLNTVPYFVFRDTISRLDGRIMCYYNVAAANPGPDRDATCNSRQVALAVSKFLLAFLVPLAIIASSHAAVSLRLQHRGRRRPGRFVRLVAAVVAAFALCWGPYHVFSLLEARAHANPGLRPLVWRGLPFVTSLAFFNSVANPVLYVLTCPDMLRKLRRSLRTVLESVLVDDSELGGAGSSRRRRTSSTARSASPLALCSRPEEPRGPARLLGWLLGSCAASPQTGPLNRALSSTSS
Description: (§1) A mutant with amino acid substitution expression vector obtained by partially substituting amino acid residues in an extracellular region with other amino acid residues among the amino acid sequences of human CRTH2 was prepared. Specifically, mutant with amino acid substitution expression vectors obtained by substitution of S2A; N4A; T6A and L7A; K8A, P9A, and L10A; P12A, L14A, and EISA; Q16E, R19H, and Q21R; H23A, S24A, and N25A; T26A, S27A, and I28A; D171A, T172A, and I173A; S174A, R175A, and L176A; D177A, G178A, and R179A; 1180A and M181A; Y183A, Y184A, and N185A; L187A, L188A, and L189A; N190A; P191A; G192A; P193A; D194A; R195A; D196A, and T198A; N275A, G277A, and L278A; P276A; P279A and L281A; P280A; or V282A, R283A, and R284A in the amino acid sequences represented by SEQ ID NO: 2 were respectively prepared. It should be noted that the above symbols in the amino acid substitution indicate [single letter code of an amino acid residue before substitution] [substitution position counting from the N terminal] [single letter code of the amino acid reside after substitution].
(§2) Azami-Green tag was added to the intercellular C terminal region by inserting genes encoding various mutants with amino acid substitution obtained by deleting termination codons to the restriction enzyme sites of BamHI and HindIII using phmAG1-MNLinker (MBL) as expression vectors.
(§3) The above-described vectors expressing mutants with amino acid substitution were prepared using 1) a method of entirely synthesizing gene sequences encoding mutants with amino acid substitution and inserting the gene sequences into a vector or 2) a method of performing site-specific mutation from a vector into which DNA which encodes the amino acid sequences of wild-type human CRTH2 represented by SEQ ID NO: 1 was inserted.
(§4) CHO-S cells (Lifetechnologies) were used for preparing mutated human CRTH2 with amino acid substitution expressing cell lines. Free style CHO expression medium (Invitrogen) containing 8 mM L-Glutamine (Invitrogen) was used for subculturing cells and the cells were cultured by shaking under the conditions of 37° C. in the presence of 5% CO2.
(§5) 25 μg of the mutated human CRTH2 with amino acid substitution expression vector prepared in (1) described above was dissolved in 400 μL of Opti-Pro SFM (Invitrogen) and 25 μL of a Freestyle MAX Reagent (Invitrogen) was dissolved in 400 μL of Opti-Pro SFM and each of them were allowed to stand at room temperature for 5 minutes. The two liquids were mixed with each other and allowed to stand at room temperature for 15 minutes. The mixed solution was added to the CHO-S culture solution and the cells were cultured for 24 hours, thereby obtaining cell lines which express mutated human CRTH2 with amino acid substitution.
(§6) The CHO-S cells which express mutated human CRTH2 with amino acid substitution established in (2) were washed with SM, seeded in a 96-well plate such that one well has 2×10^5 cells, and centrifuged at 1700 rpm for 2 minutes. After the supernatant was removed, chLym2, LV0HV1, the anti-human CRTH2 antibody hu19A2 v52, hu8B1 v1, ch3C12, or ch31A5 prepared in Example 9, or a commercially available anti-human CRTH2 antibody BM16 (Santa Cruz) prepared to have a concentration of 10 μg/mL using SM was added thereto to cause a reaction at 4° C. for 1 hour.
(§7) After the cells were washed, goat anti-Human IgG Alexa 647 (Molecular Probes) diluted with SM was added to wells to which chLym2, LV0HV1, hu19A2 v52, hu8B1 v1, ch3C12, or ch31A5 was added and goat anti-Rat IgG Alexa 647 (Molecular Probes) diluted with SM was added to wells to which BM16 was added at a final concentration of 10 μg/mL to cause a reaction at 4° C. for 1 hour.
(§8) After the reaction, the cells were washed and suspended with SM, and the fluorescent intensity was analyzed by flow cytometry (BD Biosciences, FACS CantoII). […]

[2] = molecular target: T2, mutated human CRTH2 with amino acid substitution (Homo sapiens, UniProt Q9Y5Y4, I180A/M181A); experiment: as above; format: binding; settings: mutant I180A and M181A; antibody 10 μg/mL; relative to wild-type = 100%
T2 construct: inserting genes encoding various mutants with amino acid substitution obtained by deleting termination codons; expressed in transfected cells; host or cells: CHO-S cells (Lifetechnologies), transient (phmAG1-MNLinker vector)
T2 sequence (Q9Y5Y4 1-395 I180A/M181A): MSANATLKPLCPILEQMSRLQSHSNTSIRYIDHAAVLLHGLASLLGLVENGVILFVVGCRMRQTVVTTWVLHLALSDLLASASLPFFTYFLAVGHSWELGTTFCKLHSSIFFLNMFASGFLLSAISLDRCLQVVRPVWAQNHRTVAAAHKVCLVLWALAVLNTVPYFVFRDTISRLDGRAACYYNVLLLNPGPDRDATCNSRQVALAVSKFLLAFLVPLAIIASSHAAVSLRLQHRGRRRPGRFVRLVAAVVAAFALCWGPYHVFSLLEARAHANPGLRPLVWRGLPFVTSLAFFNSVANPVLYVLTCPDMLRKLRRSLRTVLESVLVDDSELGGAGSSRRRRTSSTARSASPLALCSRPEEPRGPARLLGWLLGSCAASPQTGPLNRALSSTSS
Description: as §1, §2, §3, §4, §5, §6, §7, §8

B1: LV0HV1: humanized Lym2 antibody, VL LV0 (SEQ ID NO: 33), VH HV1 (SEQ ID NO: 51) (antibody, V domains shown)
VH: EVQLVESGGGVVQPGRSLRLSCAASGFTFSNYYMAWVRQAPGKGLEWVATISYDGSSTYYRDSVKGRFTISRDNAKNSLYLQMNSLRAEDTATYYCARHRGYYYSGAGYFDYWGQGTMVTVSS
VL: DIVMTQTPLSLPVTPGESASISCRSSQSLEYSDGYTYLEWYLQKPGQSPQVLIYGVSNRFSGVPDRFSGSGSGTDFTLKISRVEAEDVGVYYCFQATHDPLTFGQGTKLEIK
[1]
  reactivity against cells expressing mutated human CRTH2: lost
[2]
  reactivity against cells expressing mutated human CRTH2: lost

From patent publication US10100120B2, “Antibody which specifically binds to human CRTH2” (KYOWA HAKKO KIRIN CO., LTD, priority 2015, dated 2018)
